Assay results from paper PMC10387068.

Key:
[1] = target: heterotrimeric Gq 4A (Gαq 4A with Venus(1-155)-β1 and Venus(156-239)-γ2), P50148;P62873;P59768; assay: BRET assay (receptor-Nluc and Venus-tagged βγ subunits); settings: values normalized to cells transfected with the same FZD5-Nluc construct but no Gq 4A; parent: est. 111; read off a plot
[2] = target: DEP-Venus (isolated DEP domain of human DVL2 tagged with mVenus) (UniProt O14641); assay: direct BRET titration; settings: HEK293A cells, constant receptor-Nluc plasmid, increasing DEP-Venus plasmid, read off a plot; for other: BRETmax: parent: est. 0.23; for other: log BRET50: parent: est. 2.6

| Substance | response [1] | other: BRETmax [2] | other: log BRET50 [2] |
| --- | --- | --- | --- |
| FZD5-Nluc (wild-type human Frizzled-5, C-terminally tagged with Nanoluciferase) (from UniProt Q13467) F4×45A | 102 % BRET | 0.14 | 3.1 |
| FZD5-Nluc (wild-type human Frizzled-5, C-terminally tagged with Nanoluciferase) (from UniProt Q13467) L3×52A | 103 % BRET | 0.18 | 2.8 |
| FZD5-Nluc (wild-type human Frizzled-5, C-terminally tagged with Nanoluciferase) (from UniProt Q13467) W7×55A | 111 % BRET | 0.19 | 3.4 |
| FZD5-Nluc (wild-type human Frizzled-5, C-terminally tagged with Nanoluciferase) (from UniProt Q13467) Y6×53A | 100 % BRET | 0.13 | 3.1 |
| FZD5-Nluc (wild-type human Frizzled-5, C-terminally tagged with Nanoluciferase) (from UniProt Q13467) W8×54A | 105 % BRET | 0.19 | 2.9 |
| FZD5-Nluc (wild-type human Frizzled-5, C-terminally tagged with Nanoluciferase) (from UniProt Q13467) M3×37A | 103 % BRET | 0.16 | 3 |
| FZD5-Nluc (wild-type human Frizzled-5, C-terminally tagged with Nanoluciferase) (from UniProt Q13467) L6×52A | 109 % BRET | 0.22 | 2.7 |
| FZD5-Nluc (wild-type human Frizzled-5, C-terminally tagged with Nanoluciferase) (from UniProt Q13467) L5×62A | 113 % BRET | 0.24 | 2.4 |
| FZD5-Nluc (wild-type human Frizzled-5, C-terminally tagged with Nanoluciferase) (from UniProt Q13467) T1×53A | 106 % BRET | 0.19 | 3.1 |
| FZD5-Nluc (wild-type human Frizzled-5, C-terminally tagged with Nanoluciferase) (from UniProt Q13467) R6×32A | 106 % BRET | 0.15 | 4.1 |
| FZD5-Nluc (wild-type human Frizzled-5, C-terminally tagged with Nanoluciferase) (from UniProt Q13467) V3×44A | 107 % BRET | 0.2 | 2.5 |
| FZD5-Nluc (wild-type human Frizzled-5, C-terminally tagged with Nanoluciferase) (from UniProt Q13467) C2×50A | 101 % BRET | 0.12 | 2.8 |
| FZD5-Nluc (wild-type human Frizzled-5, C-terminally tagged with Nanoluciferase) (from UniProt Q13467) M6×30A | 111 % BRET | 0.21 | 3.2 |

Next, values leading:

| response [1] | other: BRETmax [2] | other: log BRET50 [2] | Substance |
| --- | --- | --- | --- |
| 101 % BRET | 0.15 | 2.7 | FZD5-Nluc (wild-type human Frizzled-5, C-terminally tagged with Nanoluciferase) (from UniProt Q13467) Y2×51A |
| 111 % BRET | 0.22 | 3.2 | FZD5-Nluc (wild-type human Frizzled-5, C-terminally tagged with Nanoluciferase) (from UniProt Q13467) T1×50A |
| 108 % BRET | 0.23 | 2.4 | FZD5-Nluc (wild-type human Frizzled-5, C-terminally tagged with Nanoluciferase) (from UniProt Q13467) G6×34A |
| 115 % BRET | 0.25 | 2.4 | FZD5-Nluc (wild-type human Frizzled-5, C-terminally tagged with Nanoluciferase) (from UniProt Q13467) G5×65A |
| 107 % BRET | 0.22 | 2.2 | FZD5-Nluc (wild-type human Frizzled-5, C-terminally tagged with Nanoluciferase) (from UniProt Q13467) M7×44A |
| 105 % BRET | 0.19 | 2.5 | FZD5-Nluc (wild-type human Frizzled-5, C-terminally tagged with Nanoluciferase) (from UniProt Q13467) V45×52A |
| 102 % BRET | 0.14 | 2.7 | FZD5-Nluc (wild-type human Frizzled-5, C-terminally tagged with Nanoluciferase) (from UniProt Q13467) W6×61A |
| 106 % BRET | 0.2 | 2.5 | FZD5-Nluc (wild-type human Frizzled-5, C-terminally tagged with Nanoluciferase) (from UniProt Q13467) Y6×51A |
| 108 % BRET | 0.19 | 2.5 | FZD5-Nluc (wild-type human Frizzled-5, C-terminally tagged with Nanoluciferase) (from UniProt Q13467) F3×29A |
| 108 % BRET | 0.17 | 3.4 | FZD5-Nluc (wild-type human Frizzled-5, C-terminally tagged with Nanoluciferase) (from UniProt Q13467) Y2×39A |
| 106 % BRET | 0.21 | 2.5 | FZD5-Nluc (wild-type human Frizzled-5, C-terminally tagged with Nanoluciferase) (from UniProt Q13467) G5×58A |
| 102 % BRET | 0.16 | 2.7 | FZD5-Nluc (wild-type human Frizzled-5, C-terminally tagged with Nanoluciferase) (from UniProt Q13467) L5×48A |
| 108 % BRET | 0.22 | 2.6 | FZD5-Nluc (wild-type human Frizzled-5, C-terminally tagged with Nanoluciferase) (from UniProt Q13467) W3×43A |
